From PMC7802242, “The nuclear lamina is a hub for the nuclear function of Jacob” (Molecular Brain, 2021)

Legend:
[1] = molecular target: T1, untagged LaminB1 (human, UniProt P20700 1-586); assay: pull-down; amylose-MBP matrix alone or coupled with MBP-Jacob proteins, washed in 20 mM Tris pH 7.5, 1 mM DTT, 3 mM EDTA, 100 mM NaCl, 0.3% TritonX-100; incubated with 20 μg of untagged LaminB1 or untagged CRM1 overnight at 4 °C; Western blot; conditions: both partners purified
T1 construct: Lamin B1, human, subcloned from mTagRFP-hLaminB1 into the Intein-pMXB10 vector between NdeI and XhoI; Cloning through the XhoI site may leave a few vector residues at the C-terminus after the intein is cut off (surmise); also called recombinant LaminB1; LaminB1(PMXB10); source: E. coli SHuffle (C3026), purified (chitin resin, released with 50 mM DTT)
T1 sequence (looked up): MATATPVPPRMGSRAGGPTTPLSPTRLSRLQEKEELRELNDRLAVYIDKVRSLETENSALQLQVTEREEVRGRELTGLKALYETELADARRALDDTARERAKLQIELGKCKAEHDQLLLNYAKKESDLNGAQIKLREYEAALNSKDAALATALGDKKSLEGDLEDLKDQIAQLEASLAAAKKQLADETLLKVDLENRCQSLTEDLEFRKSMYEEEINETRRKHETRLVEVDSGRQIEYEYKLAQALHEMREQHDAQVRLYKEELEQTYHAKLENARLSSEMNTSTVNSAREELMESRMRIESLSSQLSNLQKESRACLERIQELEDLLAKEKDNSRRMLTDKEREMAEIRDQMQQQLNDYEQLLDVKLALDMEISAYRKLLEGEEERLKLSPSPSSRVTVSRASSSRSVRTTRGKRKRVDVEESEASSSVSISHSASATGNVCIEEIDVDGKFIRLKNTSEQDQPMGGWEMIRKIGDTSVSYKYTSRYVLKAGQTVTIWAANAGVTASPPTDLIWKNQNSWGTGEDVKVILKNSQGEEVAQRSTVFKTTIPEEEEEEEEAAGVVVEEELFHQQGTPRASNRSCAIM

[2] = molecular target: T2, untagged-CRM1 (human, UniProt O14980 1-1071); assay: as above; conditions: both partners purified
T2 construct: CRM1 (Exportin 1), human, subcloned from 3xFLAG-hCRM1 into the Intein-pMXB10 vector between NdeI and XhoI; Cloning through the XhoI site may leave a few vector residues at the C-terminus after the intein is cut off (surmise); also called recombinant CRM1; CRM1 (PMXB10); source: E. coli ExpressLysY/Iq, purified (chitin resin, released with 50 mM DTT)
T2 sequence (O14980 whole entry): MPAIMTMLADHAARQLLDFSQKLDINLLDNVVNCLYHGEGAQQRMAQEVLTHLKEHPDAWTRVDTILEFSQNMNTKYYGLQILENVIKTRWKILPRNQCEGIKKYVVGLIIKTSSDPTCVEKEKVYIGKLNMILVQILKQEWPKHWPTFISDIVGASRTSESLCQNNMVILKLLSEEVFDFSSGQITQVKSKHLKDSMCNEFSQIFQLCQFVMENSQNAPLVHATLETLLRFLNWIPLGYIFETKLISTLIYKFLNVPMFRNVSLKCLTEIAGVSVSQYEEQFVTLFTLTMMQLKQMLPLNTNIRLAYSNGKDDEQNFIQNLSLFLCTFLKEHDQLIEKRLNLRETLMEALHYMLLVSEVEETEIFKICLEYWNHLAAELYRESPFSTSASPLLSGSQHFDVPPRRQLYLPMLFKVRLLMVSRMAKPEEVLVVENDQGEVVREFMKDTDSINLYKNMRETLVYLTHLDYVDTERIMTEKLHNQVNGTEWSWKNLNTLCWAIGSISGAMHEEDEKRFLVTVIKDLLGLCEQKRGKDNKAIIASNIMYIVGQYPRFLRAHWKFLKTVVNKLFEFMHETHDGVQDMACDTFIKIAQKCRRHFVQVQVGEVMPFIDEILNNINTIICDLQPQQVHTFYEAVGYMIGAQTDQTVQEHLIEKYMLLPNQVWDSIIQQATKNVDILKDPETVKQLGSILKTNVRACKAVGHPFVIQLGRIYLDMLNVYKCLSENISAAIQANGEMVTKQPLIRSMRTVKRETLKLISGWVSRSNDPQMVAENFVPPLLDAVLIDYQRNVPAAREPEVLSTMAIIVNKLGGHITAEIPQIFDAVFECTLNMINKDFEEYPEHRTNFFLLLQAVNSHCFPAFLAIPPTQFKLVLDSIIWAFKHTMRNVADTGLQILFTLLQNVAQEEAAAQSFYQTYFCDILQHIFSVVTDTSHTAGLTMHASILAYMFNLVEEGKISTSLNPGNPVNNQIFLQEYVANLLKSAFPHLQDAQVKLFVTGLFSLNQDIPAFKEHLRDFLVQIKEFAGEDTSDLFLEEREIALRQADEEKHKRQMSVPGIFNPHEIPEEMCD

- binding result [1]: binds
- binding result [2]: binds
B1: MBP-45-532-Jacob (domain or fragment, rat, UniProt Q9EPI6 45-532, looked up)
chain: DHLLADAYSGHEGSPEMQPAPHNKRRLSLVSNGRYEGSISDEAVSGKTATEGPQPRVYTISREPALLPGSEAEAIELAVVKGRRQRERHPHHHSQPLRASPGSSREDISRPCQSWAGSRQGSKECPGCAKLVPGPSPRAFGLEQPPLPEASGRHKKLERMYSVDGVSDDVPIRTWFPKENPFSFQTATTTMQAISVFRGYAERKRRKRENDSASVIQRNFRKHLRMVGSRRVKAQTFAERRERSFSRSWSDPTPMKADTSHDSRDSSDLQSSHCTLDEACEDLDWDTEKGLEATACDTEGFLPPKVMLISSKVPKAEYIPTIIRRDDPSIIPILYDHEHATFEDILEEIEKKLNIYHKGAKIWKMLIFCQGGPGHLYLLKNKVATFAKVEKEEDMIHFWKRLSRLMSKVNPEPNVIHIMGCYILGNPNGEKLFQNLRTLMTPYKVTFESPLELSAQGKQMIETYFDFRLYRLWKSRQHSKLLDFDDVL
notes: Jacob (Nsmf), residues 45-532, truncated for protein stability; also called amylose-MBP-45-532-Jacob; Jacob fused to MBP; source: E. coli SHuffle (C3026), pMAL vector, coupled to amylose resin
